Measurements: the emibetuzumab library of Makowski et al. (2022)

B1: VH:VL chains; a variant is named by its letters at X, in order (parent)
chain 1: QVQLVQSGAEVKKPGASVKVSCKASGYTFTDYXMHWVRQAPGQGLEWMGXVNPNXXXTTYNQKFEGRVTMTTDTSTSTAYMELRSLRSDDTAVYYCARXNXLDXWGQGTTVTVSS
chain 2: DIQMTQSPSSLSASVGDRVTITCSVSSSVSSIYLHWYQQKPGKAPKLLIYSTSNLASGVPSRFSGSGSGTDFTLTISSLQPEDFATYYCQVYSGYPLTFGGGTKVEIK

Variants of: B1
Assay: yeast display scFab, FACS + sequencing
In short: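 Heavy-chain CDR mutant scFab yeast surface library, FACS-sorted after labelling with biotinylated ovalbumin (260 μg/mL in PBSB, 3 h, room temperature) or soluble membrane proteins (130 μg/mL, 20 min on ice), plus anti-Myc. Gates collected the top 25% and bottom 10% of binders, and samples from two replicates were deep sequenced. Non-specific binding call: a sequence was positive if found in ≥3 of 4 positive samples (membrane protein and ovalbumin pooled) and no negatives, and negative by the converse rule.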

Variant | non-specific binding call
FRERGSAV | binds
FRERGSAD | binds
FRARSSGF | binds
DREEGVGV | no binding
DREEGDVV | no binding
YRGANVVY | binds
ARGEGSGV | no binding
YRERGAGF | binds
YRATDFVV | binds
VREAADSF | no binding
VRERGDGV | no binding
VRERGDGS | no binding
YRERNAAA | binds
YRGANSGA | binds
DREGDYLY | no binding
FRERGAVV | binds
FRGESAAA | binds
AREGDDVA | no binding
FRGEAVVY | binds
SRGGAAWA | binds
FRGADFGD | binds
YRGAASAV | binds
YREEGDVF | no binding
YRGGAAWY | binds
YRGGAAWD | binds

Variant | non-specific binding call
YRGGAAAA | binds
VRERGSSF | no binding
FRARSAAA | binds
FRARSAAV | binds
YRERDSAD | binds
FREGASWD | binds
YREKAAWA | binds
VRERGSAV | binds
VRERGSAD | binds
YRARSAVY | binds
YRARSAVD | binds
YRARSAVV | binds
YRARSAVA | binds
YRERAAGY | binds
YRGEGASD | binds
VREGDYLS | binds
SREGGFAA | binds
YRGAAASS | no binding
FRATSAVD | binds
VRERGVGV | binds
YRGAGSVD | binds
DRERGDGY | no binding
SREAADWA | no binding
SREAADWV | no binding
YREKGAAA | binds

Variant | non-specific binding call
VREEGDGA | no binding
YREKGSLD | binds
DREEGDGV | no binding
DREEGDGS | no binding
FRARGSWV | binds
YRARSAGF chain 1 G108D | binds
FRGEGAVS | binds
SREGGVVV | binds
VRERGAGS | binds
YREGGSGV | binds
YRARSSGV | binds
YRARSSGA | binds
YRERGSAD | binds
YRERGSAA | binds
YRERGSAV | binds
YREETSGA | binds
AREKGSAA | binds
YRARSAGY | binds
YRARSAGV | binds
YRARSAGA | binds
YRARSAGF | binds
DREEGSGD | no binding
VRERGAWD | binds
FRERGSWV | binds
FRGEGALV | binds

Variant | non-specific binding call
DREEGDWV | no binding
DREEGDWA | no binding
YREGGAGV | binds
YREGGDGA | no binding
FRERGDGA | binds
YRGANSVF | binds
YRARSSVA | binds
YRARSSVV | binds
YRGEGAWV | binds
YRERTAAV | binds
DREEGSWV | no binding
YRGEGDAV | no binding
YRGEGDAA | no binding
FRGEGSGV | binds
VRGEGSWD | binds
DREEGAVA | no binding
DREEGAVY | no binding
DREEGAVV | no binding
DREEGFSV | no binding
YRERGALS | binds
YRERGALA | binds
FRGADSGF chain 1 R98K | binds
YREGDFVD | binds
FRGEGAAD | binds
YREGGSVD | no binding

Variant | non-specific binding call
FREKDSAD | no binding
YRGAGSAD | binds
YRGAGSGD | binds
YRGAGSGY | binds
YRGAGSGV | binds
YRGAGSGS | binds
YRARSFGD | binds
YRARSFGS | binds
FRGESSGA | binds
VRATGSVY | binds
YRGAGYGS | binds
SREAASGV | no binding
YRARSSWS | binds
YRARSSWD | binds
VRERGSLY | binds
YRGAGALV | binds
FREGSASV | binds
VRARGVVA | binds
YRGASSWV | binds
YRGAGAGV | binds
YRGAGAGA | binds
YRGAGAGS | binds
VRGAGAWV | binds
VRERGDWV | no binding
VRERGDWF | no binding

Variant | non-specific binding call
SREAAAVY | no binding
VREGDDAV | no binding
VREGSSAA | binds
YRARSDVF | no binding
YRARGSVS | binds
YRARGSVF | binds
ARARGSWV | binds
FRERGYGA | binds
DREGDDAV | no binding
YRERGSSF | binds
YREKDSAD | no binding
YREKGAGD | binds
FRGESSWD | binds
FRGESAGV | binds
FRGESAGS | binds
FRGESAGA | binds
VRERGDLV | no binding
DRARTFVA | binds
FRERGAAA | binds
YREGGFVA | binds
YREGDAAD | no binding
YRGEGAVS | binds
SREEGFSV | no binding
YRGASSGF | binds
YRGEASVD | binds

Variant | non-specific binding call
FREGSAVA | binds
VRERGDAS | binds
VRERGDAA | no binding
FRERNAAA | binds
YREKGSAA | binds
YRGEAFLY | binds
YREGGFAA | binds
YRGESAWV | binds
YRARSAAD | binds
YRARSAAV | binds
FREGGALD | binds
YRERSSLD | binds
FRGAGSVD | binds
FRGAGSVA | binds
ARGAGYGS | binds
DREGGVSD | binds
YRARSSAD | binds
YRARSSAA | binds
SREAADAV | no binding
YREGGSLD | binds
YRGESSGF | binds
DRGEGAGD chain 1 G42D | no binding
YRGESAVD | binds
FREEGFSV | no binding
YRARSALD | binds

Variant | non-specific binding call
YRGAGSLD | binds
SREAADGV | no binding
FRERGAGD | binds
FRERGAGY | binds
DREEGSSA | no binding
DREEGSSY | no binding
YRGEGSAS | binds
YRGADFGF | binds
YRGAGFVD | binds
FRGESSAD | binds
FREKGDLA | no binding
SREAASLA | no binding
YRARSASV | binds
YRARSASA | binds
YRARSSLA | binds
YRARSSLY | binds
YRGAGAVS | binds
YRGAGAVY | binds
YRGAGAWA | binds
YRGAGAWS | binds
YRGAGAWV | binds
YRERSDVS | binds
YRARGYGV | binds
YRGAGAAD | binds
YRGAGAAA | binds

Variant | non-specific binding call
VRGAGSWV | binds
YRARGSWD | binds
YRARGSWS | binds
AREGDAGD | no binding
FREGGAVS | binds
ARERGDGY | no binding
VRERGSWV | binds
VRERGSWD | binds
DREGDAVA | no binding
FRGEGFSV | binds
VRATGYWA | binds
FRGEGSVS | binds
YRGAGYAA | binds
VREGAAAV | no binding
YRERSSVA | binds
YRGASAAA | binds
YRERGAVV | binds
VRERGASD | binds
YRARGVGA | binds
YRARGVGV | binds
YRERGSWV | binds
DREEGAGV | no binding
DREEGAGA | no binding
DREEGAGS | no binding
SRGANAWD | binds

Variant | non-specific binding call
YREGDASD | no binding
YRERGAWV | binds
YRERGAAV | binds
YRERGAAA | binds
YRERGAAD | binds
YRERGAAF | binds
SRATAYSD | binds
VRERSSVD | binds
YRARGYVY | binds
YRGAASSD | binds
FREGGSGD | binds
YREKGSSA | binds
YREKGSSV | binds
AREEGFSV | no binding
YRARSSSD | binds
YRARSAWS | binds
YRARSAWA | binds
YRARSAWV | binds
FRERGALA | binds
YREEGDGV | no binding
FRETDFGA | binds
DREEGDAV | no binding
YRARGVVV | binds
